What was measured:
[1] = biological target: human BTN3A, endogenous on human cells (PBMCs; Daudi cells) (human) (UniProt O00481); test: flow cytometry, human PBMCs Donor 1, from the fitted curve
[2] = biological target: human BTN3A, endogenous on human cells (PBMCs; Daudi cells) (human) (UniProt O00481); test: flow cytometry, human PBMCs Donor 1, PE anti-human secondary
[3] = biological target: BTN3A1 antigen (Sino Biological cat. no. 15973-H08H) (human) (UniProt O00481); test: SPR Biacore T200, single cycle kinetics, culture supernatants
Chain of BTN3A1 antigen (Sino Biological cat. no. 15973-H08H) (human) (O00481 30-254 limits assumed): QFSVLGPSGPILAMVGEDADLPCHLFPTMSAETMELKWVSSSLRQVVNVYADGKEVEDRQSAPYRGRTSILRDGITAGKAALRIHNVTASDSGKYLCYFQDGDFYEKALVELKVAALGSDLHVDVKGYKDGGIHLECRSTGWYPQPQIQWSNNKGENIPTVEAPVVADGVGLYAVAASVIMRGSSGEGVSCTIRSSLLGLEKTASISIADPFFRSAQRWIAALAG

[4] = biological target: cynomolgus BTN3A, endogenous on cynomolgus PBMCs (cynomolgus); test: flow cytometry, cynomolgus PBMCs Donor 1, from the fitted curve
[5] = biological target: cynomolgus BTN3A, endogenous on cynomolgus PBMCs (cynomolgus); test: flow cytometry, cynomolgus PBMCs Donor 2, from the fitted curve
[6] = biological target: cynomolgus BTN3A, endogenous on cynomolgus PBMCs (cynomolgus); test: flow cytometry, cynomolgus PBMCs Donor 3, from the fitted curve
[7] = biological target: cynomolgus BTN3A, endogenous on cynomolgus PBMCs (cynomolgus); test: flow cytometry, cynomolgus PBMCs Donor 1, PE anti-human secondary
[8] = biological target: cynomolgus BTN3A, endogenous on cynomolgus PBMCs (cynomolgus); test: flow cytometry, cynomolgus PBMCs Donor 2, PE anti-human secondary
[9] = biological target: cynomolgus BTN3A, endogenous on cynomolgus PBMCs (cynomolgus); test: flow cytometry, cynomolgus PBMCs Donor 3, PE anti-human secondary
[10] = biological target: BTN3A1 antigen (Sino Biological cat. no. 15973-H08H) (human) (UniProt O00481); test: SPR Biacore T200, multi-cycle kinetics, antibody captured on Protein A, BTN3A1 as analyte
[11] = biological target: T1, human BTN3A, endogenous on human cells (PBMCs; Daudi cells) (human, UniProt O00481 30-513); test: cell-based or functional assay
T1 sequence (O00481 30-513): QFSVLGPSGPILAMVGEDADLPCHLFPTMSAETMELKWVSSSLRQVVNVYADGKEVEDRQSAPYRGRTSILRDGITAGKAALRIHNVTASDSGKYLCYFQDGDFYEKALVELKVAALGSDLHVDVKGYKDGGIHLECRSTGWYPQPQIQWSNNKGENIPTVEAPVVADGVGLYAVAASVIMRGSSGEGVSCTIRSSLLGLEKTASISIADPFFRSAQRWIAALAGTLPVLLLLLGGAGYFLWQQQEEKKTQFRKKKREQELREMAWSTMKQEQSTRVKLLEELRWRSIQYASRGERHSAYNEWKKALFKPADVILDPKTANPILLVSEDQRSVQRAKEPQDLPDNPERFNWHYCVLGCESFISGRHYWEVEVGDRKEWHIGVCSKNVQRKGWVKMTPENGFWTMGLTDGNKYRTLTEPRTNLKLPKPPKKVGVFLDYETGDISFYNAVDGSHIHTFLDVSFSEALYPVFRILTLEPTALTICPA

[12] = biological target: T1, human BTN3A, endogenous on human cells …; test: flow cytometry, human PBMCs Donor 1, PE anti-human secondary
Protocol: Frozen PBMCs were revived, added to pre-warmed AIM-V (ThermoFisher Scientific, Loughborough, UK) media and counted. Cells were harvested, washed by centrifuging at 500×g for 10 minutes and then resuspended in 1×DPBS, pH 7.4. This step was repeated once and the cells were resuspended in 1×DPBS, pH 7.4 at 1×10⁶ cells/mL. Cells were stained for viable and dead cells by incubating for half an hour in the dark using the LIVE/DEAD® Far Red Dead Cell staining kit (ThermoFisher, Paisley, UK) following the manufacturer's instructions. An aliquot of cells heated at 70° C. for ten minutes was included as the dead cell control. During this staining, a three-point, 1 in 3 titration curve of test antibody (starting from 0.063 μg/mL for the selected antibodies) was prepared in Flow buffer (0.5% BSA, 2 mM EDTA, 1×DPBS, pH 7.4) in a 96-well dilution plate. […] Cells were then analysed on an Attune NxT focusing cytometer (ThermoFisher Scientific, Loughborough, UK), collecting 10,000 events per sample using two laser channels: RL1 for live/dead cells and BL2 for PE. Data was analysed using the instrument statistic tool or FlowJo software (Version 10, FlowJo, LLC, Ashland, USA) gating on the live population of lymphocyte cells. The X-median values from BL2 channel (PE signal) were then calculated and plotted against concentration. […]

[13] = biological target: T2, BTN3A1 antigen (Sino Biological cat. no. 15973-H08H) (human, UniProt O00481 30-254); test: SPR Biacore T200, single cycle kinetics, culture supernatants
T2 construct: Bought recombinant antigen; also called CD277
T2 sequence (O00481 30-254 limits assumed): as the sequence (O00481 30-254 limits assumed) above
Protocol: To assess the binding of all Composite Human Antibody™ variants and to select antibodies with suitable affinity to BTN3A as compared to the original murine antibody, single cycle kinetic analysis was performed on supernatants from transfected cell culture using a Biacore T200 (serial no. 1909913) running Biacore T200 Evaluation Software V2.0.1 (Uppsala, Sweden).

[14] = biological target: T2, BTN3A1 antigen (Sino Biological cat. …); test: SPR Biacore T200, multi-cycle kinetics, antibody captured on Protein A, BTN3A1 as analyte
Protocol: Multi-cycle kinetic analysis was performed on the six selected humanized 103.2 variants (VH4/Vκ2, VH4/Vκ3, VH4/Vκ4, VH5/Vκ2, VH5Vκ3, VH5/Vκ4) together with the chimeric antibody and the humanized variant, VH1/Vκ1, using a Biacore T200 (serial no. 1909913) instrument running Biacore T200 Evaluation Software V2.0.1 (Uppsala, Sweden).
Purified antibodies were diluted to a concentration of 2 μg/ml in 2% BSA/PBS. At the start of each cycle, each antibody was captured on the Protein A at a density (RL) of ˜146.5 RU (theoretical value to obtain an RMax of ˜50 RU). Following capture, the surface was allowed to stabilize before injection of the BTN3A1 antigen (Sino Biological cat. no. 15973-H08H). BTN3A1 was titrated in 0.1% BSA/HBS-P+(running buffer) in a two-fold dilution range from 25 to 0.78 nM. The association phase was monitored for 400 seconds and the dissociation phase for 35 minutes (2100 seconds). Kinetic data was obtained using a flow rate of 50 μl/min to minimize any potential mass transfer effects. Regeneration of the Protein A surface was conducted using two injections of 10 mM glycine-HCL pH 1.5 at the end of each cycle. Two blanks (no BTN3A1) and a repeat of a single concentration of the analyte were performed for each tested antibody to check the stability of the surface and analyte over the kinetic cycles. The signal from the reference channel Fc1 was subtracted from that of Fc2, Fc3 and Fc4 to correct for differences in non-specific binding to a reference surface. Additionally, blank runs were subtracted for each Fc to correct any antigen-independent signal variation, such as drift. Sensorgrams were fitted using a one-to-one binding mathematical model with a global RMax parameter and no bulk signal (Constant RI=0 RU).
The relative KD compared to 103.2 chimeric (VH0/Vκ0) was calculated by dividing the KD of the 103.2 Composite Human Antibody™ variants by that of the chimeric on the same chip.

[15] = biological target: T3, human BTN3A2 expressed on HEK293 cells (human, UniProt P78410 30-334); test: cell microarray (Retrogenix), fixed HEK293 cells, 2 µg/ml antibody
T3 construct: Cell microarray (Retrogenix); also called BTN3A2 (two isoforms)
T3 sequence (P78410 30-334 limits assumed): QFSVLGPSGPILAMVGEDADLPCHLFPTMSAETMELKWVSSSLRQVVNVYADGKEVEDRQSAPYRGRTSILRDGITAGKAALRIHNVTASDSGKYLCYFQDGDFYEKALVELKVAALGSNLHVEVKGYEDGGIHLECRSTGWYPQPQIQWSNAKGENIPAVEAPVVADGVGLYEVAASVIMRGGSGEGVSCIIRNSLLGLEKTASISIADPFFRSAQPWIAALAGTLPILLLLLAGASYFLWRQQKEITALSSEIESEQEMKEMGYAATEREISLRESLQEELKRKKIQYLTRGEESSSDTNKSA

[16] = biological target: T4, human BTN3A3 expressed on HEK293 cells (human, UniProt O00478 30-584); test: as above
T4 construct: Cell microarray (Retrogenix); one isoform of BTN3A3 was a hit; also called BTN3A3 (one isoform)
T4 sequence (O00478 30-584 limits assumed): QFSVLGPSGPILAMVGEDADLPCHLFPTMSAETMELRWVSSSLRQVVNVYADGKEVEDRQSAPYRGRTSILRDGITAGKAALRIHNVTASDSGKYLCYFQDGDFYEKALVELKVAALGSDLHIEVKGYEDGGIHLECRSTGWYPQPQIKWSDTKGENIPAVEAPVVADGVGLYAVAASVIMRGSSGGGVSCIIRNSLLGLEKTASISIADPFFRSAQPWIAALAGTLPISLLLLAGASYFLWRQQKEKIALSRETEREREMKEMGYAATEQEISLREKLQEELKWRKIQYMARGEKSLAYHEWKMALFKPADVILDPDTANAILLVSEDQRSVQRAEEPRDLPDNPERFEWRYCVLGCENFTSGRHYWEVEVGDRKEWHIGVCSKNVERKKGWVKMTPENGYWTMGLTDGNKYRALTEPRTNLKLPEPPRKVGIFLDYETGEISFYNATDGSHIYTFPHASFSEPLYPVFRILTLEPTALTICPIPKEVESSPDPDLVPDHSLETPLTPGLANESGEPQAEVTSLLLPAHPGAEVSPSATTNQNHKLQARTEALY

Chain of human BTN3A, endogenous on human cells (PBMCs; Daudi cells) (human) (O00481 30-513): as the sequence (O00481 30-513) above

Molecule: 103.2 chimeric antibody VH0/Vκ0
- Theoretical Max binding (MFI) [1]: 19600 MFI
- EC50 [2]: 0.019 µg/mL
- Kd [3]: 0.0403 nM
- Relative KD to 103.2 chimeric [3]: 1
- Theoretical Max binding (MFI) [4]: 8950 MFI
- Theoretical Max binding (MFI) [5]: 5940 MFI
- Theoretical Max binding (MFI) [6]: 5150 MFI
- EC50 [7]: 0.014 µg/mL
- EC50 [8]: 0.012 µg/mL
- EC50 [9]: 0.013 µg/mL
- Kd [10]: 0.106 nM
- Relative KD to chimeric [10]: 1
- koff [10]: 8.98e-05 s⁻¹
- kon [10]: 845000 M⁻¹ s⁻¹

B1: 103.2 humanized variant VH4/Vκ4 (antibody, V domains shown)
VH: QVQMQQSGAEVKKPGASVKVSCKASGYAFTSYLIHWIKQRPGQGLEWIGVINPRSGDSHYNEKFKDRVTMTADQSISTAYMELSRLRSDDTAVYYCARSDYGAYWGQGTLVTVSS
VL: EIVLTQSPATLSVSPGERATLSCRASQSISNNLHWYQQKPGQAPRLLIKYASQSAFGIPARFSGSGSGTEFTLTISSLQSEDFAVYFCQQSNSWPHTFGQGTKLEIK
notes: also called H4K4; 103.2 VH4/V κ 4
- IC50 (µg/ml), inhibition of γδ T cell degranulation (CD107a/b) against Daudi cells [11]: 0.0121 µg/mL
- Theoretical Max binding (MFI) [4]: 8560 MFI
- Theoretical Max binding (MFI) [5]: 5820 MFI
- Theoretical Max binding (MFI) [6]: 4970 MFI
- EC50 [7]: 0.013 µg/mL
- EC50 [8]: 0.011 µg/mL
- EC50 [9]: 0.012 µg/mL
- EC50 [12]: 0.017 µg/mL
- Kd [13]: 0.054 nM
- Relative KD to 103.2 chimeric [13]: 1.3 ratio
- Kd [14]: 0.108 nM
- Relative KD to chimeric [14]: 1 ratio
- koff [14]: 8.33e-05 s⁻¹
- kon [14]: 770000 M⁻¹ s⁻¹

B2: mAb1 (Fc-silenced humanized 103.2 IgG1) (antibody, V domains shown)
VH: QVQMQQSGAEVKKPGASVKVSCKASGYAFTSYLIHWIKQRPGQGLEWIGVINPRSGDSHYNEKFKDRVTMTADQSISTAYMELSRLRSDDTAVYYCARSDYGAYWGQGTLVTVSS
VL: EIVLTQSPATLSVSPGERATLSCRASQSISNNLHWYQQKPGQAPRLLIKYASQSAFGIPARFSGSGSGTEFTLTISSLQSEDFAVYFCQQSNSWPHTFGQGTKLEIKR
notes: Fc-silenced human IgG1, kappa; also called humanized 103.2 Fc-silenced IgG1; Hu103.2
- binding result [15]: binds
- binding result [16]: binds

Source: US20250353909A1 (IMCHECK THERAPEUTICS, published 2025)
